Consider 16 molecules from patent US12383631B2, “Immune antigen specific IL-18 immunocytokines and uses thereof” (Bright Peak Therapeutics AG, priority 2022, dated 2025).

The assay deals with T1, human IL-18 binding protein isoform a (IL-18BPa) (Homo sapiens, UniProt O95998).
T1 sequence (O95998 31-194): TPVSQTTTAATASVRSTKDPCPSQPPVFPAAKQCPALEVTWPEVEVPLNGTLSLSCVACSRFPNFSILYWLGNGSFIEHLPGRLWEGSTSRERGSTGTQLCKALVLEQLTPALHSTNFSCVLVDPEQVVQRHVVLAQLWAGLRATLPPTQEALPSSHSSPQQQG
The assay can be described thus: IL-18 Binding Protein inhibition cellular assay in NK-92 cells (Example 4 / 17C). The assay is classed as cell-based. To be noted: inhibition by IL-18BP of IFNγ stimulation in NK92 cells. How it is done: The NK cell line NK-92 derived from a patient with lymphoma (ATCC® CRL-2407™) is cultured in aMEM medium supplemented with 20% FCS-Glutamax, 25 μM β-mercaptoethanol, and 100 IU/mL of recombinant human IL-2.
On the day of experiment, cells are harvested and washed with aMEM medium without IL-2 and containing 1 ng/mL of recombinant human IL-12. After counting, the cells are seeded at 100,000 cells/well in a 384 well titer plate and incubated at 37° C./5% CO2. Sixteen 2-fold serial dilutions of Fc-fused human IL-18 binding protein isoform a (IL-18BPa) are prepared in aMEM medium. 1 ng/mL of IL-12 containing 2 nM of each modified IL-18 polypeptide variant is added to the NK-92 cells. The final IL-18 analyte concentration is 1 nM, and the final IL-18BPa concentration ranged from 566 nM to 17 pM.
After incubating the cells for 16-20 hr at 37° C./5% CO2, 5 μL of the supernatant is carefully transferred to a 384 microwell OptiPlate. IFNγ levels are measured using a human IFNγ AlphaLISA Assay Kit. Briefly, 10 μL of 2.5× AlphaLISA anti-IFNγ acceptor beads and biotinylated antibody anti-IFNγ mix are added to 5 μL of NK-92 supernatants. The mixtures are incubated for 1 hr at room temperature with shaking. Under subdued light, 2.5 μL of 2×SA donor beads are pipetted in each well and incubated for 30 min at room temperature with shaking. AlphaLISA signals are then measured on an EnSpire™ plate reader using 680 nm and 615 nm as excitation and emission wavelengths, respectively. Half maximal inhibitory concentrations (IC50) are calculated based on a variable slope and four parameter analysis using GraphPad PRISM software.
17C—IFNγ Stimulation and IL-18BP Inhibition Assay—The experiments described in Example 4 for determination of IFNg stimulation in NK92 cells (and inhibition by IL-18 BP) were performed substantially as described on modified IL-18 polypeptides in order to assess their activities and their suitability for incorporation into immunocytokine compositions.

B1: C143: IL-18 polypeptide: V11I, C38A, K53A, C76A, C127A (protein)
chain: YFGKLESKLSIIRNLNDQVLFIDQGNRPLFEDMTDSDARDNAPRTIFIISMYADSQPRGMAVTISVKCEKISTLSAENKIISFKEMNPPDNIKDTKSDIIFFQRSVPGHDNKMQFESSSYEGYFLAAEKERDLFKLILKKEDELGDRSIMFTVQNED
Molecule B1 showed an IC50 of 1.62 nM.

B2: C149: IL-18 polypeptide: V11I, E31A, C38A, K53A, C76A, C127A (protein)
chain: YFGKLESKLSIIRNLNDQVLFIDQGNRPLFADMTDSDARDNAPRTIFIISMYADSQPRGMAVTISVKCEKISTLSAENKIISFKEMNPPDNIKDTKSDIIFFQRSVPGHDNKMQFESSSYEGYFLAAEKERDLFKLILKKEDELGDRSIMFTVQNED
For B2, the IC50 turned out to be 1.17 nM.

B3: C154: IL-18 polypeptide: V11I, E31A, D37A, C38A, K53A, C76A, C127A (protein)
chain: YFGKLESKLSIIRNLNDQVLFIDQGNRPLFADMTDSAARDNAPRTIFIISMYADSQPRGMAVTISVKCEKISTLSAENKIISFKEMNPPDNIKDTKSDIIFFQRSVPGHDNKMQFESSSYEGYFLAAEKERDLFKLILKKEDELGDRSIMFTVQNED
For B3, the IC50 turned out to be 3.71 nM.

B4: SEQ ID NO: 68: IL-18 polypeptide: V11I, C38A, M51G, K53A, C76A, C127A (protein)
chain: YFGKLESKLSIIRNLNDQVLFIDQGNRPLFEDMTDSDARDNAPRTIFIISGYADSQPRGMAVTISVKCEKISTLSAENKIISFKEMNPPDNIKDTKSDIIFFQRSVPGHDNKMQFESSSYEGYFLAAEKERDLFKLILKKEDELGDRSIMFTVQNED
B4 had an IC50 of 733 nM.

B5: C151: IL-18 polypeptide: V11I, D35A, C38A, K53A, C76A, C127A (protein)
chain: YFGKLESKLSIIRNLNDQVLFIDQGNRPLFEDMTASDARDNAPRTIFIISMYADSQPRGMAVTISVKCEKISTLSAENKIISFKEMNPPDNIKDTKSDIIFFQRSVPGHDNKMQFESSSYEGYFLAAEKERDLFKLILKKEDELGDRSIMFTVQNED
As for B5, the IC50 came out at 3.62 nM.

B6: C156: IL-18 polypeptide: V11I, C38A, N41A, K53A, C76A, C127A (protein)
chain: YFGKLESKLSIIRNLNDQVLFIDQGNRPLFEDMTDSDARDAAPRTIFIISMYADSQPRGMAVTISVKCEKISTLSAENKIISFKEMNPPDNIKDTKSDIIFFQRSVPGHDNKMQFESSSYEGYFLAAEKERDLFKLILKKEDELGDRSIMFTVQNED
B6 displayed an IC50 of 0.681 nM.

B7: C155: IL-18 polypeptide: V11I, C38A, D40A, K53A, C76A, C127A (protein)
chain: YFGKLESKLSIIRNLNDQVLFIDQGNRPLFEDMTDSDARANAPRTIFIISMYADSQPRGMAVTISVKCEKISTLSAENKIISFKEMNPPDNIKDTKSDIIFFQRSVPGHDNKMQFESSSYEGYFLAAEKERDLFKLILKKEDELGDRSIMFTVQNED
B7 showed an IC50 of 3.23 nM.

B8: C157: IL-18 polypeptide: V11I, C38A, K53A, C76A, C127A, D132A (protein)
chain: YFGKLESKLSIIRNLNDQVLFIDQGNRPLFEDMTDSDARDNAPRTIFIISMYADSQPRGMAVTISVKCEKISTLSAENKIISFKEMNPPDNIKDTKSDIIFFQRSVPGHDNKMQFESSSYEGYFLAAEKERALFKLILKKEDELGDRSIMFTVQNED
As to B8, the IC50 amounted to 6.08 nM.

B9: C144: IL-18 polypeptide: V11I, C38A, K53A, T63A, C76A, C127A (protein)
chain: YFGKLESKLSIIRNLNDQVLFIDQGNRPLFEDMTDSDARDNAPRTIFIISMYADSQPRGMAVAISVKCEKISTLSAENKIISFKEMNPPDNIKDTKSDIIFFQRSVPGHDNKMQFESSSYEGYFLAAEKERDLFKLILKKEDELGDRSIMFTVQNED
B9 yielded an IC50 of 7.52 nM.

B10: C150: IL-18 polypeptide: V11I, T34A, C38A, K53A, C76A, C127A (protein)
chain: YFGKLESKLSIIRNLNDQVLFIDQGNRPLFEDMADSDARDNAPRTIFIISMYADSQPRGMAVTISVKCEKISTLSAENKIISFKEMNPPDNIKDTKSDIIFFQRSVPGHDNKMQFESSSYEGYFLAAEKERDLFKLILKKEDELGDRSIMFTVQNED
In turn, B10 displayed an IC50 of 21.3 nM.

B11: C145: IL-18 polypeptide: V11I, C38A, K53A, S55A, C76A, C127A (protein)
chain: YFGKLESKLSIIRNLNDQVLFIDQGNRPLFEDMTDSDARDNAPRTIFIISMYADAQPRGMAVTISVKCEKISTLSAENKIISFKEMNPPDNIKDTKSDIIFFQRSVPGHDNKMQFESSSYEGYFLAAEKERDLFKLILKKEDELGDRSIMFTVQNED
In the case of B11, the IC50 is 10.2 nM.

B12: C148: IL-18 polypeptide: F2A, V11I, C38A, K53A, C76A, C127A (protein)
chain: YAGKLESKLSIIRNLNDQVLFIDQGNRPLFEDMTDSDARDNAPRTIFIISMYADSQPRGMAVTISVKCEKISTLSAENKIISFKEMNPPDNIKDTKSDIIFFQRSVPGHDNKMQFESSSYEGYFLAAEKERDLFKLILKKEDELGDRSIMFTVQNED
B12: the IC50 worked out at 5.05 nM.

B13: C152: IL-18 polypeptide: V11I, S36A, C38A, K53A, C76A, C127A (protein)
chain: YFGKLESKLSIIRNLNDQVLFIDQGNRPLFEDMTDADARDNAPRTIFIISMYADSQPRGMAVTISVKCEKISTLSAENKIISFKEMNPPDNIKDTKSDIIFFQRSVPGHDNKMQFESSSYEGYFLAAEKERDLFKLILKKEDELGDRSIMFTVQNED
Molecule B13 yielded an IC50 of 7.85 nM.

B14: C153: IL-18 polypeptide: V11I, D37A, C38A, K53A, C76A, C127A (protein)
chain: YFGKLESKLSIIRNLNDQVLFIDQGNRPLFEDMTDSAARDNAPRTIFIISMYADSQPRGMAVTISVKCEKISTLSAENKIISFKEMNPPDNIKDTKSDIIFFQRSVPGHDNKMQFESSSYEGYFLAAEKERDLFKLILKKEDELGDRSIMFTVQNED
On to B14, for which the IC50 is 2.22 nM.

B15: C147: IL-18 polypeptide: V11I, C38A, K53A, D54A, C76A, C127A (protein)
chain: YFGKLESKLSIIRNLNDQVLFIDQGNRPLFEDMTDSDARDNAPRTIFIISMYAASQPRGMAVTISVKCEKISTLSAENKIISFKEMNPPDNIKDTKSDIIFFQRSVPGHDNKMQFESSSYEGYFLAAEKERDLFKLILKKEDELGDRSIMFTVQNED
For B15, the IC50 turned out to be 47.6 nM.

B16: C158: IL-18 polypeptide: V11I, C38A, K53A, C76A, G108A, C127A (protein)
chain: YFGKLESKLSIIRNLNDQVLFIDQGNRPLFEDMTDSDARDNAPRTIFIISMYADSQPRGMAVTISVKCEKISTLSAENKIISFKEMNPPDNIKDTKSDIIFFQRSVPAHDNKMQFESSSYEGYFLAAEKERDLFKLILKKEDELGDRSIMFTVQNED
Regarding B16, the IC50 was determined as 3.98 nM.
